Paper PMC7067600 (Nature structural & molecular biology, 2019)

B1: 19 bp dsDNA (dsDNA)
DNA 1: ATCGATGTCTCTAGACAGC
DNA 2: GCTGTCTAGAGACATCGAT
B2: 14 bp dsDNA (dsDNA)
DNA 1: ATCGATGTCTCTAG
DNA 2: CTAGAGACATCGAT
B3: His-tagged Gallus gallus FANCI (expressed alone) (natural protein, UniProt B0I564 1-1338, looked up)
chain: MAQRILQLAAEGSPERLQEALQGLTEGELGDMVTRQALRGRETAALLKGIFKGSPCSQQSGVLRRLQVYKHCVSLVESGDLHVGKVSEIIGLLMLEARQLPGHALAELATLFVEVIKRGSLSNGKSLELFSTVLTALSNSKESLAYGKGELNGEEFKKQLINTLCSSKWDPQCVIHLANMFRDIPLSGEELQFVVEKVLRMFSKLDLQEIPPLVYQLLLLSAKGSKKTVLEGIISFFNQLDKRQKEEQRVPQSADLEVATVPLDQLRHVEGTVILHIVSAINLDQDIGEELIKHLKTEQQKDPGKALCPFSVSLLLSTAVKHRLQEQIFDFLKTSITRSCKDLQILQASKFLQDLCPQQYDVTAVILEVVKNSAFGWDHVTQGLVDLGFSLMESYEPKKSFGGKAAETNLGLSKMPAQQACKLGASILLETFKVHEPIRSDILEQVLNRVLTKAASPVSHFIDLLSNIVVSAPLVLQNSSSRVTETFDNLSFLPIDTVQGLLRAVQPLLKVSMSVRDSLILVLQKAIFSRQLDARKAAVAGFLLLLRNFKILGSLTSSQCSQAIGATQVQADVHACYNSAANEAFCLEILGSLRRCLSQQADVRLMLYEGFYDVLRRNSQLASSIMETLLSQIKQYYLPQQDLLPPLKLEGCIMAQGDQIFLQEPLAHLLCCIQHCLAWYKSTVHLCKGAEDEEEEEDVGFEQNFEEMLESVTRRMIKSELEDFELDKSADFSPSSGVGVKNNIYAIQVMGICEVLIEYNFKIGNFSKNKFEDVLGLFTCYNKLSEILKEKAGKNKSTLGNRIARSFLSMGFVSTLLTALFRDNAQSHEESLAVLRSSTEFMRYAVSVALQKVQQLEEMGQTDGPDGQNPEKMFQNLCKITRVLLWRYTSIPTAVEESGKKKGKSISLLCLEGLLRIFNTMQQLYAARIPQFLQALDITDGDAEEADINVTEKAAFQIRQFQRSLVNQLSSAEDDFNSKETQLLITILSTLSKLLDPGSQQFLQFLTWTVKICKENALEDLSCCKGLLTLLFSLHVLYKSPVSLLRELAQDIHACLGDIDQDVEIESRSHFAIVNVKTAAPTVCLLVLGQADKVLEEVDWLIKRLTILGSDTSEDSTQASNQTQALEKGVILQLGTLLTVFHELVQTALPAGSCVDSLLRSLSKTYAILTSLIKHYIQACRSTSNTVPGRLEKLVKLSGSHLTPQCYSFITYVQNIHSESLSFAEEKKKKKKEDETAVVSTVMAKVLRDTKPIPNLIFAIEQYEKFLIHLSKKSKVNLMQYMKLSTSRDFRINASMLDSVLQEQNTEDAENEPDNNQSGTAEQPDENQEPQKKRRRKK
B4: 39 bp dsDNA (dsDNA)
DNA 1: ATCGATGTCTCTAGACAGCTGCTCAGGATTGATCTGTAA
DNA 2: TTACAGATCAATCCTGAGCAGCTGTCTAGAGACATCGAT
B5: StrepII-tagged Gallus gallus FANCD2 (expressed alone) (natural protein, UniProt Q68Y81 1-1439, looked up)
chain: MVSKRKLSKIDAAEESSKTDLQSRCPETKRSRISDKRAPSQGGLENEGVFEELLRTSGIILKVGEGQNEIAVDQTAFQKKLRVALEKHPSYPGVVNEFISGLESHIKDRSQFKNCLLPCTPARTEGSRTLVHSYCESLIKLLLGIKILQPAVVTLLLEKIPEFFFDVVGTFGTNFPRLIVNQFKWLDGLLDSQDLVKKLMQMLSVSPVPIQHDIITSLPEILEDSQQNEVARELSCLLKQGRRLTVPILDALSRLDLDAELLAEVRQSAMTIVPSVKLEDLPVVIKFILHNVKAADAVEVISDLRKSLDLSSCVLPLQLLGSQRKLKSQAQASSSMSQVTTSQNCVKLLFDVIKQAVRFQKDVSEAWIKAIENSTSVSDHKVLDLIVLLLIHSTNSKNRKQTEKVLRSKIRLGCMPEQLMQNAFQNHSMVIKDFFPSILSLAQTFLHSAHPAVVSFGSCMYKQAFAVFDSYCQQEVVCALVTHVCSGNETELDISLDVLTDLVILHPSLLLRYATFVKTILDSMQKLNPCQIRKLFYILSTLAFSQRQEGSYIQDDMHMVIRKWLSSSVPNHKQMGIIGAVTMMGSVALKRNEADGGLLERPELSIECDGQLSTLLDLVGFCCEQTPEVLALYYDELANLIEKQKGNLDLQLLDKFGKSLVEDFPNDFVVDLSPTVDGSFLFPVKSLYNLDEDETQGAIAINLLPLVSQSEPGRVADEMSNSRKRVVSPICLSPCFRLLRLYTGEQNNGSLEEIDALLGCPLYLTDLEVEGKLDSLSKQEREFLCSLLFYALNWFREVVNAFCQQQDAEMKGKVLTRLQNITELQNVLGKCLAATPGYVPPPATFDSEAPEGVPSINAGGPVRKKNGKKRKSDSSKACSAERTQADESSDGNQPDTELSELEKSATEKETGNPLAQLQSYRPYFRELDLEVFSVLHCGLLTKSILDTEMHTEASEVVQLGPAELCFLLDDMCWKLEHVLTPGSTRRVPFLKERGNKDVGFSHLCQRSPKEVAVCVVKLLKPLCNHMENMHNYFQTVIPNQGVVDESGLNIQEYQLMSSCYHQLLLAFRLLFAWSGFSQHENSNLLRSALQVLADRLKPGETEFLPLEELISESFQYLLNFQASIPSFQCAFILTQVLMAISEKPMTGWKREKMASLAKQFLCQSWMKPGGDREKGSHFNSALHTLLCVYLEHTDNILKAIEEISSVGVPELINSAKDGCSSTYPTLSRQTFPVFFRVMMAQLESSVKSIPAGKPSDSGEVQLEKLLKWNIAVRNFHILINLVKVFDSRPVLSICLKYGRLFVEAFLKLAMPLLDHSFKKHRDDVQSLLKTLQLSTRQLHHMCGHSKIHQDLGLTNHVPLLKKSLEQFVYRVKAMLAFNHCQEAFWVGVLKNRDLQGEEILSQASAAPEEDSAEGSEEDTADSAAEEPDGTDSDSGGAGR

Assays:
[1] = target: FANCD2 (in co-expressed D2-I);FANCI (in co-expressed D2-I) (Gallus gallus;Gallus gallus, UniProt Q68Y81;B0I564 1-1439;1-1338, |); assay: EMSA
[2] = target: B5; assay: pull-down
FANCD2 (isolated) = FANCD2 (isolated) (Gallus gallus, UniProt Q68Y81 1-1439); assay: EMSA
FANCI (isolated) = target: T1, FANCI (isolated) (Gallus gallus, UniProt B0I564 1-1338); assay: EMSA
T1 sequence: B3 chain

SEC = target: the molecule itself; assay: SEC

**Q.** Does B1 bind [1]?
**A.** Result: binds

**Q.** Does B2 bind [1]?
**A.** Result: no binding

**Q.** For B3, which “stoichiometry N” value [2] is on record?
**A.** Its value is ~1 FANCI:FANCD2.

**Q.** Does B4 bind (FANCD2 (isolated))?
**A.** Result: no binding

**Q.** Does B4 bind (FANCI (isolated))?
**A.** Result: binds

**Q.** With B5 as the binder, how does the “stoichiometry N” value (SEC) read?
**A.** Its value is 2.
